{"source": "patent US5336488A", "about": "“Method of treating or preventing mastitis in animals with involuting mammary glands by administering recombinant cytokines” (American Cyanamid Company, priority 1992, dated 1994)", "molecules": {"B1": {"name": "recombinant bovine interleukin-1 (protein, UniProt P09428 114-266, looked up)", "Interleukin-1 beta": "APVQSIKCKLQDREQKSLVLASPCVLKALHLLSQEMNREVVFCMSFVQGEERDNKIPVALGIKDKNLYLSCVKKGDTPTLQLEEVDPKVYPKRNMEKRFVFYKTEIKNTVEFESVLYPNWYISTSQIEERPVFLGHFRGGQDITDFRMETLSP", "notes": "recombinant bovine interleukin-1, obtained from IMMUNEX Corp. Seattle, WA"}, "B2": {"name": "recombinant bovine interleukin-2 (protein, UniProt P05016 21-155, looked up)", "Interleukin-2": "APTSSSTGNTMKEVKSLLLDLQLLLEKVKNPENLKLSRMHTFDFYVPKVNATELKHLKCLLEELKLLEEVLNLAPSKNLNPREIKDSMDNIKRIVLELQGSETRFTCEYDDATVNAVEFLNKWITFCQSIYSTMT", "notes": "recombinant bovine interleukin-2, obtained from IMMUNEX Corp. Seattle, WA"}}, "key": {"[1]": {"system": "Bovine Mammary Gland", "assay": "Dose response of bovine mammary gland to intramammary infusion: somatic cell influx into milk", "type": "in vivo, bovine (Holstein dairy cattle)", "settings": "for infiltration of somatic cells into the milk: lactating cattle, FIG. 1; for minimal effective dose: somatic cell influx", "procedure": "FIG. 1: Dose Response of Bovine Mammary Gland to Intramammary Infusion of Recombinant Cytokines\nFive fold serial dilutions of r-BolL-1 (recombinant bovine interleukin-1) from 312.5 μg to […]: r-BoIL-2 (recombinant bovine interleukin-2) from 40 mg to 0.1 mg: and r-BoGM-CSF (recombinant bovine granulocyte macrophage colony stimulating factor) from 0.2 mg to […] are administered at time 0 into 3-4 mammary glands from normal lactating Holstein dairy cattle. A total of 54 mammary gland quarters, 3-4 per group, are infused through the teat canal with various concentrations of recombinant bovine cytokines after the morning milking. Milk samples are collected and the number of viable somatic cells counted on a Coulter® ZM with a C256 Channelyzer. The data is expressed as the somatic cell count per ml of milk\nThese doses are guidelines for quantitative induction of somatic cells, but significant beneficial qualitative changes can be induced with lower doses. The specific biological activity for r-BoIL-1 as a chemoattractant is approximately 10,000 fold greater than r-BoIL-2, although the in vitro specific bioactivities are equivalent. Active IL-2 inhibition or decreased biostability in milk might explain this discrepancy. The peak number of cells after r-BoIL-1 infusion with a maximal tolerable dose is 4-5 fold greater than r-BoIL-2. The kinetics of PMN migration into the mammary gland is such that migration occurs 8- 24 hours sooner for r-BoIL-1 infusions […] the BolL-2 infusion depending upon the dose. The dominant cell type after r-BoIL-1 or r-BoIL-2 infusion is PMNs."}, "[2]": {"system": "milk PMNs", "assay": "Quantity of milk PMNs after intramammary infusion", "type": "in vivo, bovine (Holstein dairy cattle)", "procedure": "(§1) FIGS. 2(A-I): Quantity and Quality of Milk PMNs from Mammary Glands Infused with r-BolL-1 or r-BoIL-2\n(§2) A total of 12 mammary glands from normal lactating Holstein dairy cattle are infused through the teat canal with either 200 μg of r-BoIL-1; 2 mg of r-BoIL-2; or 1 mg of r-BoGM-CSF. Milk samples are collected and the number of viable somatic cells counted on a Coulter® ZM with a C256 Channelyzer. The data is expressed as the somatic cell count per ml of milk sampled at 16, 40, 64 and 88 hours after infusion for r-BoIL-1 (A); r-BoIL-2 (D); or r-BoGM-CSF(G). The total percentage of phagocytosis by milk PMNs (polymorphonuclear cells) is quantitatively measured by flow cytometry by measuring the percentage of cells ingesting 2μ fluorescent beads for r-BoIL-1 (B); r-BoIL-2(E); or r-BoGM-CSF(H). The total population is first gated by forward angle light scatter, FALS and 90° light scatter to only consider viable polymorphonuclear cells. The induction of superoxide after PMA (520.eta.g)stimulation is also monitored using a whole cell cytochrome-c reduction assay, for r-BoIL-1 (C); r-BoIL-2(F); or r-BoGM-CSF(I). PMNs from untreated milk could not be induced to produce superoxide, while peripheral blood PMNs are inducible in a range of 5-15 .eta.M O2 /Minute/10^7 PMNs."}, "[3]": {"system": "milk PMNs", "assay": "Phagocytosis of fluorescent beads by milk PMNs (flow cytometry) after intramammary infusion", "type": "in vivo, bovine (Holstein dairy cattle)", "procedure": "as §1, §2"}, "[4]": {"system": "milk PMNs", "assay": "Inducible superoxide of milk PMNs after PMA stimulation (cytochrome-c reduction)", "type": "in vivo, bovine (Holstein dairy cattle)", "procedure": "as §1, §2"}, "[5]": {"system": "S. aureus", "assay": "Prevention of S. aureus mastitis in lactating animals", "type": "in vivo, S. aureus (in lactating Holstein dairy cattle)", "settings": "for % CONTROL / % INFECTED: vs Control 1; for protection from subsequent S. aureus challenge: intramammary infusion, Table 1; for most efficacious time of administration for protective effect: relative to S. aureus challenge", "text": "This maximal protection correlates with the peak quantitative biological response for this cytokine. […] This also correlates with the peak quantitative biological response of this cytokine and also marks the qualitative increase in phagocytosis and inducible superoxide, FIG. 2D & 2E.\n^1 Single intramammary infusion administered after the PM milking. A\ntotal of 100 mammary glands from 22 different lactating Holstein dairy\n^2 All glands are free of bacteria on 5 successive samples after the\nAM milking prior to the initial infusion.\n^3 The total dose in mass of protein is indicated. The biological\n^4 Infusions of cytokines were administerd simultaneously with S.\naureus 0, 24 or 48 hours proir to challenge with 30-200 CFUs of S.\n^5 Individual quarters are considered cured if the milk samples remai\nfree of S. aureus. for 14 days after intramammary challenge with of S.\n^6 The % Control = (1 - {% Infected After Therapy divided by Infected\nin Control Quarters)} × 100.\n*Quarters in Control 1 are challenged with 250 CFUs of S. aureus..\nQuarters in Control 2 are challenged with 30 CFUs of S. aureus."}, "[6]": {"assay": "Specific biological activity of recombinant cytokine protein", "settings": "for in vitro specific bioactivities: r-BoIL-1 compared with r-BoIL-2; for biological activity: mass of protein"}}}
{"molecule": "B1", "values": [{"measurement": "PMN migration into the mammary gland occurs sooner than with BoIL-2 infusion", "setting": "[1]; depending upon the dose", "value": "8 to 24", "unit": "h"}, {"measurement": "dominant cell type after infusion", "setting": "[1]; intramammary infusion", "value": "PMNs"}, {"measurement": "maximal tolerable dose", "setting": "[1]; intramammary infusion", "value": 1000, "unit": "mg"}, {"measurement": "infiltration of somatic cells into the milk", "setting": "[1]; intramammary infusion", "value": "induce an infiltration of somatic cells into the milk in a dose related manner"}, {"measurement": "specific biological activity as a chemoattractant, greater than r-BoIL-2", "setting": "[1]; intramammary infusion, relative to r-BoIL-2", "value": "approximately 10,000 fold"}, {"measurement": "minimal effective dose", "setting": "[1]; intramammary infusion", "value": 0.5, "unit": "mg"}, {"measurement": "peak number of cells after infusion, greater than r-BoIL-2", "setting": "[1]; maximal tolerable dose, relative to r-BoIL-2", "value": "4-5 fold"}, {"measurement": "increase over the pre-treatment number of PMNs", "setting": "[2]; 16 hours, 200 μg, FIG. 2A", "value": 150, "unit": "×"}, {"measurement": "increase over the pre-treatment number of PMNs", "setting": "[2]; 40 hours, 200 μg, FIG. 2A", "value": 20, "unit": "×"}, {"measurement": "number of PMNs", "setting": "[2]; by 112 hours, 200 μg, FIG. 2A", "value": "back to normal levels by 112 hours"}, {"measurement": "phagocytosis", "setting": "[3]; 200 μg r-BoIL-1, FIG. 2B", "value": "unaffected"}, {"measurement": "inducible superoxide upon phorbol ester stimulation", "setting": "[4]; 200 μg r-BoIL-1, vs resident PMNs, FIG. 2C", "value": "significantly increased over the resident PMNs"}, {"measurement": "% CONTROL", "setting": "[5]; 1 μg, 0 hrs", "value": 87, "unit": "%"}, {"measurement": "% INFECTED", "setting": "[5]; 1 μg, 0 hrs", "value": 13, "unit": "%"}, {"measurement": "% CONTROL", "setting": "[5]; 1 μg, -24 hrs", "value": 100, "unit": "%"}, {"measurement": "% INFECTED", "setting": "[5]; 1 μg, -24 hrs", "value": 0, "unit": "%"}, {"measurement": "% CONTROL", "setting": "[5]; 1 μg, -48 hrs", "value": 78, "unit": "%"}, {"measurement": "% INFECTED", "setting": "[5]; 1 μg, -48 hrs", "value": 22, "unit": "%"}, {"measurement": "protection from subsequent S. aureus challenge", "setting": "[5]", "value": "capable of protecting the host from subsequent S. aureus challenge"}, {"measurement": "most efficacious time of administration for protective effect", "setting": "[5]", "value": "most efficacious if administered 24 hours prior to S. aureus challenge"}, {"measurement": "in vitro specific bioactivities", "setting": "[6]", "value": "equivalent"}, {"measurement": "biological activity", "setting": "[6]", "value": "32,000 Units/μg"}]}
{"molecule": "B2", "values": [{"measurement": "dominant cell type after infusion", "setting": "[1]; intramammary infusion", "value": "PMNs"}, {"measurement": "maximal tolerable dose", "setting": "[1]; intramammary infusion", "value": 30, "unit": "mg"}, {"measurement": "infiltration of somatic cells into the milk", "setting": "[1]; intramammary infusion", "value": "induce an infiltration of somatic cells into the milk in a dose related manner"}, {"measurement": "minimal effective dose", "setting": "[1]; intramammary infusion", "value": 0.5, "unit": "mg"}, {"measurement": "milk PMNs (quantity)", "setting": "[2]; 2 mg, FIG. 2D", "value": "quantitative increase in milk PMNs"}, {"measurement": "milk PMNs (quantity), decline", "setting": "[2]; after 72 hours, 2 mg, FIG. 2D", "value": "diminishes after 72 hours, to control levels"}, {"measurement": "percent phagocytosis", "setting": "[3]; by 112 hrs, 2 mg r-BoIL-2, FIG. 2E", "value": "still above the pre-treatment level"}, {"measurement": "average number of ingested beads per phagocytic cell", "setting": "[3]; r-BoIL-2, upon activation", "value": "increased upon activation"}, {"measurement": "phagocytosis increase over resident PMNs", "setting": "[3]; within 40-64 hours, 2 mg r-BoIL-2, FIG. 2E", "value": "2-3 fold"}, {"measurement": "inducible superoxide, duration", "setting": "[4]; 2 mg r-BoIL-2, FIG. 2F", "value": "remains throughout the 96 hours of sampling"}, {"measurement": "inducible superoxide", "setting": "[4]; 2 mg r-BoIL-2, vs resident PMNs, FIG. 2F", "value": "significantly increased over the resident PMNs"}, {"measurement": "% CONTROL", "setting": "[5]; 1 mg, 0 hrs", "value": 23, "unit": "%"}, {"measurement": "% INFECTED", "setting": "[5]; 1 mg, 0 hrs", "value": 77, "unit": "%"}, {"measurement": "% CONTROL", "setting": "[5]; 1 mg, -24 hrs", "value": 89, "unit": "%"}, {"measurement": "% INFECTED", "setting": "[5]; 1 mg, -24 hrs", "value": 11, "unit": "%"}, {"measurement": "% CONTROL", "setting": "[5]; 1 mg, -48 hrs", "value": 63, "unit": "%"}, {"measurement": "% INFECTED", "setting": "[5]; 1 mg, -48 hrs", "value": 37, "unit": "%"}, {"measurement": "protection from subsequent S. aureus challenge", "setting": "[5]", "value": "capable of protecting the host from subsequent S. aureus challenge"}, {"measurement": "most efficacious time of administration for protective effect", "setting": "[5]", "value": "most efficacious if administered 48 hours prior to S. aureus challenge"}, {"measurement": "in vitro specific bioactivities", "setting": "[6]", "value": "equivalent"}, {"measurement": "biological activity", "setting": "[6]", "value": "22,000 Units/μg"}, {"measurement": "biological activity", "setting": "[6]; Table 3 footnote 3", "value": "22,000 Units μg"}]}
